The text below walks through data of the supplement of paper PMC9170038.

The test system of this data set is K4 kissing-loop RNA reporter. The data set can be described thus: apparent KD of K4 kissing-loop reporter; higher = weaker reporter binding. The conditions noted are these: Eterna round: R107. The procedure:
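RNA-MaP round R107: designed RNA switches with theophylline, tryptophan, arginine or FMN aptamers are transcribed on-chip within common flanks. They are titrated with a labelled K4 kissing-loop RNA reporter in RNA-MaP buffer (100 mM Tris pH 7.5, 80 mM KCl, 4 mM MgCl2), without ligand or with the indicated ligand. Median apparent KD per design.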

Setting [1] is: input ligand: theophylline 20 uM.
Where [2] appears, read: input ligand: tryptophan 2.4 mM.
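Also: bound reporter read as fluorescence of individual clusters on recovered sequencing chips by microscopy, with normalized cluster intensities fitted with a binding model.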

In the case of “CGCUGGAGUGAUGUUCCAGCUUCUACGGAUACCAGCCACGCCAGCGGCCCUUGGCAGCCGCAAAUUGCAGUGAUGUUGUGAUGCC [Same State Theophylline A GF 4]”, the “apparent KD of K4 kissing-loop reporter” value runs as follows: (input ligand: FMN 200 uM) 314 nM; (input ligand: arginine 13.2 mM) 278 nM; (input ligand: none) 312 nM; under setting [1], 312 nM; under setting [2], 283 nM.

“CGCUUUGCGUCCGGUAGUGAUGUUACCAAGCGAGGACCGGUACGGCCGCCACUCGAGUGACAGACGUACUGGUAUCACCCGCUUU”: the “apparent KD of K4 kissing-loop reporter” value (input ligand: FMN 200 uM) was 223 nM; the “apparent KD of K4 kissing-loop reporter” value (input ligand: arginine 13.2 mM) is 229 nM; the “apparent KD of K4 kissing-loop reporter” value (input ligand: none) stood at 248 nM; the “apparent KD of K4 kissing-loop reporter” value under setting [1] was found to be 235 nM; the “apparent KD of K4 kissing-loop reporter” value under setting [2] was found to be 208 nM.

For “CGGAUGUAGUGAUGUUAUAUUAGAUGUAGACGAGGACCGGUACGGCCGCCACUCGUGACGGCUGCUAGCGCGUUGCGAGGUGUGC [ExTryptoA.Cm]”, the “apparent KD of K4 kissing-loop reporter” value reads like this: (input ligand: FMN 200 uM) 729 nM; (input ligand: arginine 13.2 mM) 575 nM; (input ligand: none) 657 nM; under setting [1], 690 nM; under setting [2], 603 nM.

As for “CGGGAAUUAGGUAUCGUCGAAAGCAAGAACCGAGGACCGGUACGGCCGCCACUCGCACCAGUGAUGUUGGUACAUUUGGUAUCCG [theeternabot_sameState_KL_Trp_A_31]”, the “apparent KD of K4 kissing-loop reporter” value (input ligand: FMN 200 uM) turned out to be 115 nM; the “apparent KD of K4 kissing-loop reporter” value (input ligand: arginine 13.2 mM) was 112 nM; the “apparent KD of K4 kissing-loop reporter” value (input ligand: none) amounted to 134 nM; the “apparent KD of K4 kissing-loop reporter” value under setting [1] stood at 103 nM; the “apparent KD of K4 kissing-loop reporter” value under setting [2] stood at 132 nM.

Turning to “CGUAGAUACUGAGGAUAUCAGAAAUCUGAUAUCAUCAGAGGUCUGAGUGAUGUUCAGAUGCGACUCUGAGAAGGCAGUAGGAGUC [FMN B Ex t2]”, the “apparent KD of K4 kissing-loop reporter” value by setting is: (input ligand: FMN 200 uM) 134 nM; (input ligand: arginine 13.2 mM) 107 nM; (input ligand: none) 131 nM; under setting [1], 123 nM; under setting [2], 115 nM.

For “CGUGAGUGCCGACGGUCAUCGGUCCAUGCACGAGGACCGGUACGGCCGCCACUCGAGCGUGGCAGUGAUGUUGCCAGCGCACUAA [Oninvexece]”, the “apparent KD of K4 kissing-loop reporter” value is 114 nM (input ligand: FMN 200 uM); 89.5 nM (input ligand: arginine 13.2 mM); 101 nM (input ligand: none); 98.5 nM under setting [1]; 85.6 nM under setting [2].

“CGUGCCCAGCCGGAUACCAGUGACCCGCUGGGAACCGCGGGCCCAGAGUGAUGUUCGGGACACCCUUGGCAGCCGCCUGGGCGGU [#2 Same State - Theophylline B Attempt #11 (HarryS)]”: the “apparent KD of K4 kissing-loop reporter” value (input ligand: FMN 200 uM) worked out at 1170 nM; the “apparent KD of K4 kissing-loop reporter” value (input ligand: arginine 13.2 mM) turned out to be 343 nM; the “apparent KD of K4 kissing-loop reporter” value (input ligand: none) came to 584 nM; the “apparent KD of K4 kissing-loop reporter” value under setting [1] turned out to be 1190 nM; the “apparent KD of K4 kissing-loop reporter” value under setting [2] came to 791 nM.

Turning to “CGUUUAUAGCAGGAUACCAGUACCCAUAAAGUACGUUAAUAGUAGAGUGAUGUUCUAAAGUACCCUUGGCAGCUUCCCGUGACCG [ExTheophylB.V]”, the “apparent KD of K4 kissing-loop reporter” value is 106 nM (input ligand: FMN 200 uM); 158 nM (input ligand: arginine 13.2 mM); 129 nM (input ligand: none); 142 nM under setting [1]; 83.3 nM under setting [2].

Take “CGUUUAUAGCAGGAUACCAGUACCCAUAAAGUACGUUAAUAGUAGAGUGAUGUUCUAAAGUACCCUUGGCAGCUUCCCGUGACUG [ExTheophylB.U]”: the “apparent KD of K4 kissing-loop reporter” value is, setting by setting: (input ligand: FMN 200 uM) 65.3 nM; (input ligand: arginine 13.2 mM) 116 nM; (input ligand: none) 79.5 nM; under setting [1], 99.8 nM; under setting [2], 52.9 nM.

For “CGUUUAUAGCAGGAUACCAGUACCCAUAAAGUACGUUAAUAGUAGAGUGAUGUUCUAAAGUACCCUUGGCAGCUUCGAGUGAGUG [ExTheophylB.R]”, the “apparent KD of K4 kissing-loop reporter” value by setting is: (input ligand: FMN 200 uM) 72.5 nM; (input ligand: arginine 13.2 mM) 114 nM; (input ligand: none) 85.1 nM; under setting [1], 103 nM; under setting [2], 54 nM.

As for “CUAGGUAACACAGGAUAUGUCCGAGUGAUGUUCGAGCCUUUCCAUUGACGAAAUUAAUGGUGGGUGACAGAAGGGUGAGUACUGA [Uses]”, the “apparent KD of K4 kissing-loop reporter” value (input ligand: FMN 200 uM) stood at 457 nM; the “apparent KD of K4 kissing-loop reporter” value (input ligand: arginine 13.2 mM) stood at 640 nM; the “apparent KD of K4 kissing-loop reporter” value (input ligand: none) came to 1090 nM; the “apparent KD of K4 kissing-loop reporter” value under setting [1] stood at 640 nM; the “apparent KD of K4 kissing-loop reporter” value under setting [2] stood at 828 nM.

Consider “CUAUCGGUGCCAGUGAUGUUGGUACCGCCACGAGGACCGGUACGGCCGCCACUCGCAUUAGAUGAUCACACAGUGUAUACUGCUA [Aleusorza]”, for which the “apparent KD of K4 kissing-loop reporter” value is, setting by setting: (input ligand: FMN 200 uM) 139 nM; (input ligand: arginine 13.2 mM) 128 nM; (input ligand: none) 135 nM; under setting [1], 159 nM; under setting [2], 122 nM.

On to “CUCAAACCGUGGGCAUUUCGCAAAGUAGAUACCAGUCGCAACGGUGACCCUUGGCAGCUAGUAAAGUGAUGUUUUAUCGGCACCA [theeternabot_exclusion_KL_Theo_A_35]”, for which the “apparent KD of K4 kissing-loop reporter” value (input ligand: FMN 200 uM) worked out at 78.4 nM; the “apparent KD of K4 kissing-loop reporter” value (input ligand: arginine 13.2 mM) turned out to be 80.4 nM; the “apparent KD of K4 kissing-loop reporter” value (input ligand: none) was 78 nM; the “apparent KD of K4 kissing-loop reporter” value under setting [1] worked out at 78.6 nM; the “apparent KD of K4 kissing-loop reporter” value under setting [2] is 69.1 nM.

“CUCACGCUCACAGAUACCAGUGGUGAUCCGGAUUGUAGUGAUGUUAAUUCCGCCAUCAUACACCCUUGGCAGCUGGCGUCACCUU [theeternabot_sameState_KL_Theo_B_31]”: the “apparent KD of K4 kissing-loop reporter” value stood at 799 nM (input ligand: FMN 200 uM); 417 nM (input ligand: arginine 13.2 mM); 654 nM (input ligand: none); 871 nM under setting [1]; 715 nM under setting [2].

As for “CUCGAGUGAUGUUCGACGCGUCCGUACGAUACCAGCGUAGACCGUCGCCCUUGGCAGCGUGAUGCAGCCCGAAAGUCCGGUUCCU [theeternabot_sameState_KL_Theo_A_26]”, the “apparent KD of K4 kissing-loop reporter” value (input ligand: FMN 200 uM) stood at 1160 nM; the “apparent KD of K4 kissing-loop reporter” value (input ligand: arginine 13.2 mM) is 833 nM; the “apparent KD of K4 kissing-loop reporter” value (input ligand: none) was found to be 1430 nM; the “apparent KD of K4 kissing-loop reporter” value under setting [1] stood at 1120 nM; the “apparent KD of K4 kissing-loop reporter” value under setting [2] stood at 1070 nM.

Consider “CUCGUGGGUUUGAGAGGGCUUGUGGGAAGUGAGGAUAUUUAGGGAGAAAGAAGGCACUAUAGAAUAUAGUGAUGUUAUAUAUGGG [SSFMNA.Q]”, for which the “apparent KD of K4 kissing-loop reporter” value is, setting by setting: (input ligand: FMN 200 uM) 313 nM; (input ligand: arginine 13.2 mM) 109 nM; (input ligand: none) 264 nM; under setting [1], 69.3 nM; under setting [2], 256 nM.

Regarding “CUGCAACAUAACUUCUUCGUCCUAGAAGACUAGGAUAUCAGGAAACUGAGAAGGAGUCUCUGCAGUGAUGUUGCAGUUAGGACGA [KL-SSFMN-A7]”, the “apparent KD of K4 kissing-loop reporter” value by setting is: (input ligand: FMN 200 uM) 139 nM; (input ligand: arginine 13.2 mM) 135 nM; (input ligand: none) 115 nM; under setting [1], 160 nM; under setting [2], 138 nM.

For the sequence “CUGUACAUCUCGGCCGCCACUGACCUAAGUGAUGUUAGGAAUGAAACCUAGUGAUGUUAGCAAACCAGGACCGGGAGGUGUGCAG [KL-SSTryp-B4 #Double Kiss]”, the “apparent KD of K4 kissing-loop reporter” value by setting is: (input ligand: FMN 200 uM) 110 nM; (input ligand: arginine 13.2 mM) 33.4 nM; (input ligand: none) 83.2 nM; under setting [1], 40.2 nM; under setting [2], 51.8 nM.

Consider “CUUAAGGAGUGUCGUGCCGGACACUGGGAAGGAGCGCAAUUCUUUGCAGGUAGGUCGCCCAGUGAUGUUGGGUCUCGCUGUCGAA [KL-XArg-A20]”, for which the “apparent KD of K4 kissing-loop reporter” value was 139 nM (input ligand: FMN 200 uM); 253 nM (input ligand: arginine 13.2 mM); 204 nM (input ligand: none); 376 nM under setting [1]; 285 nM under setting [2].

For the sequence “CUUAUGGACUAAGGAUAUGGGUAUACCGGAAGCGCCGUCACGGUAGUGAUGUUACACGCGACGGGACCAGAAGGUAGAUCGCUCC [theeternabot_exclusion_KL_FMN_B_33]”, the “apparent KD of K4 kissing-loop reporter” value (input ligand: FMN 200 uM) is 73.9 nM; the “apparent KD of K4 kissing-loop reporter” value (input ligand: arginine 13.2 mM) worked out at 96.2 nM; the “apparent KD of K4 kissing-loop reporter” value (input ligand: none) came to 101 nM; the “apparent KD of K4 kissing-loop reporter” value under setting [1] is 71.3 nM; the “apparent KD of K4 kissing-loop reporter” value under setting [2] is 85.5 nM.

For the sequence “CUUAUGGAGUGUCGUACCGGACACUGGGAAGGAGCGCAAUUCUUUGCAGGUAGGUCGCCCAGUGAUGUUGGGUGGCGCUGUCGAA [Xebeor]”, the “apparent KD of K4 kissing-loop reporter” value runs as follows: (input ligand: FMN 200 uM) 191 nM; (input ligand: arginine 13.2 mM) 173 nM; (input ligand: none) 181 nM; under setting [1], 266 nM; under setting [2], 169 nM.
